From the supplement of paper PMC10724198 come the findings set out here.

± gives the standard deviation of the averaged measurements.
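Note: PSI is a weighted mean of sequencing reads over stability bins, variants kept only with over 10 reads, mCherry proximal and sfGFP distal, peptide attached via GGGS linker.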

The test system of this series is Saccharomyces cerevisiae. The series is described as follows: protein stability index of tFT-peptide fusion (C-terminal peptide) (PSI (0-1 scale)); higher = more stable (slower turnover). To be noted: genetic background: wild type; temperature: 30 C. How it is done:
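Multiplexed protein stability (MPS) profiling in S. cerevisiae. Random 12-aa peptides (tFT-X12 library) are fused to the C-terminus of a sfGFP-mCherry tandem fluorescent timer, after mCherry and a GGGS linker. Cells are FACS-sorted into 8 mCherry/sfGFP bins and deep-sequenced. The protein stability index (PSI) is the read-weighted bin average, scaled from 0 (unstable) to 1 (stable). Only peptides with >10 reads are reported; cells were grown at 30 °C in SC-His with glucose.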
EKKNMRYKTVEI had a protein stability index of 0.668 ± 0.066.
On to EKLKTKEEKKTR, for which the protein stability index is 0.759 ± 0.054.
EKRKNKKYKNKM returned a protein stability index of 0.698 ± 0.049.
EKSGKDKRKNEI came in with a protein stability index of 0.723 ± 0.062.
On to EKSRSLACQHST, for which the protein stability index was 0.6725 ± 0.0052.
ELCWCSKDNCYP returned a protein stability index of 0.6993 ± 0.0059.
To ELFHVGQLNSHE belongs 0.738 ± 0.12.
To ELGTDGSQKRAA belongs 0.7045 ± 0.0053; to ELHPPIPYPSRP, 0.6773 ± 0.0047; to ELIDGKLLRHRQ, 0.733 ± 0.061.
The sequence ELKGHIPFTLSR returned a protein stability index of 0.703 ± 0.04.
To ELLSCGCCMVQS belongs 0.5622 ± 0.0025; to ELNGLSLVRKKK, 0.662 ± 0.021; to ELRFRGITRTTV, 0.725 ± 0.052.
Regarding ELSCMDGPLLCP, the protein stability index was found to be 0.683 ± 0.059.
Take ELSPLSYRNRTA: the protein stability index was 0.6835 ± 0.001.
For EMEHANDARRVS the value was 0.67 ± 0.015.
For ENERRESLTMVR the value was 0.786 ± 0.1; for ENQGQKKKKKKR, 0.733 ± 0.12; for EPDISTRGPGWT, 0.74 ± 0.026.
Turning to EPEPALTSAPPA, the protein stability index was 0.715 ± 0.023.
Sequence EPGREKRRIVQK returned a protein stability index of 0.679 ± 0.042.
To EPIMVKKACTDG belongs 0.645 ± 0.029.
Take EQLRLQSIECGE: the protein stability index was 0.631 ± 0.0073.
Sequence EQNKQPEKETYN displayed a protein stability index of 0.625 ± 0.076.
With EQSLRHKCRPSV, the protein stability index was determined as 0.596 ± 0.014.
Turning to EREGGWEVNKWR, the protein stability index is 0.757 ± 0.079.
For ERGKREMRKNLT the value was 0.681 ± 0.018; for ERGKRKASHRRR, 0.683 ± 0.041.
With ERIIGNRCYVRK, the protein stability index was 0.666 ± 0.039.
To ERRKSKRKNENE belongs 0.674 ± 0.0084; to ERRQADRHRTTP, 0.766 ± 0.05; to ERSRKVSWRFIR, 0.6746 ± 0.0033.
As for ERYKHKKMKNNE, the protein stability index came out at 0.699 ± 0.097.
In turn, ESAARGWSSGVG registered a protein stability index of 0.726 ± 0.079.
For ESAVHRTRRIPY the value was 0.7888 ± 0.0046; for ESGRGGVGVGWG, 0.709 ± 0.096; for ESLMYGYWGFAR, 0.727 ± 0.045.
For ESRRKRRVAGPN the value was 0.7072 ± 0.0066.
In the case of ESYGIVEEGVYS, the protein stability index stood at 0.652 ± 0.082.
For ETKRRQEQNIVR, the protein stability index was found to be 0.721 ± 0.082.
As to ETKSDRHDRTGT, the protein stability index is 0.655 ± 0.015.
Regarding ETVNGVGSRWGF, the protein stability index came to 0.741 ± 0.1.
Sequence EVALDRLKNRGG returned a protein stability index of 0.671 ± 0.028.
Turning to EVCPRGIAGGVV, the protein stability index came out at 0.678 ± 0.013.
For EVDHLPHQVFRY, the protein stability index came out at 0.6671 ± 0.0021.
To EVERKNKESGKI belongs 0.717 ± 0.011.
To EVGMDLTTGPIS belongs 0.619 ± 0.056.
With EVGQYVEWSCLL, the protein stability index was 0.671 ± 0.019.
To EVLFWRGVSRME belongs 0.725 ± 0.16; to EVRWIGLPMCTS, 0.6524 ± 0.0023.
For EVVFVARSGSGV the value was 0.654 ± 0.008.
For EVVRTWAVVEGG the value was 0.646 ± 0.11; for EWGDLDGRGEPR, 0.74 ± 0.0075; for EYGQTDENKMRM, 0.687 ± 0.096.
Consider EYIWLSLGSVYI, for which the protein stability index turned out to be 0.624 ± 0.05.
The sequence EYRKSVERLRVD yielded a protein stability index of 0.687 ± 0.053.
For EYTIKTENKYKI the value was 0.747 ± 0.13; for EYVKFGMEHILE, 0.675 ± 0.024; for FAFRGFLIGCGV, 0.54 ± 0.011.
In the case of FAGAEFCGPVGV, the protein stability index worked out at 0.629 ± 0.0024.
FAKLDRVGACRW yielded a protein stability index of 0.764 ± 0.013.
For the sequence FALSSSLIRAFL, the protein stability index was found to be 0.726 ± 0.00088.
FALYVHHSLSFG registered a protein stability index of 0.685 ± 0.02.
